From patent US20080219971A1 (VACCINEX, published 2008)

Assays:
Human CD100 [1] = target: T1, Human CD100 (human, UniProt Q92854 22-734, limits assumed); test: affinity testing, reference value of MAb 1808 on the same day; unit not printed (nM as in Table 3); MAb 1808 reference on the day MAb 2125 was measured
T1 construct: also called SEMA4D; Hu CD100
T1 sequence (looked up): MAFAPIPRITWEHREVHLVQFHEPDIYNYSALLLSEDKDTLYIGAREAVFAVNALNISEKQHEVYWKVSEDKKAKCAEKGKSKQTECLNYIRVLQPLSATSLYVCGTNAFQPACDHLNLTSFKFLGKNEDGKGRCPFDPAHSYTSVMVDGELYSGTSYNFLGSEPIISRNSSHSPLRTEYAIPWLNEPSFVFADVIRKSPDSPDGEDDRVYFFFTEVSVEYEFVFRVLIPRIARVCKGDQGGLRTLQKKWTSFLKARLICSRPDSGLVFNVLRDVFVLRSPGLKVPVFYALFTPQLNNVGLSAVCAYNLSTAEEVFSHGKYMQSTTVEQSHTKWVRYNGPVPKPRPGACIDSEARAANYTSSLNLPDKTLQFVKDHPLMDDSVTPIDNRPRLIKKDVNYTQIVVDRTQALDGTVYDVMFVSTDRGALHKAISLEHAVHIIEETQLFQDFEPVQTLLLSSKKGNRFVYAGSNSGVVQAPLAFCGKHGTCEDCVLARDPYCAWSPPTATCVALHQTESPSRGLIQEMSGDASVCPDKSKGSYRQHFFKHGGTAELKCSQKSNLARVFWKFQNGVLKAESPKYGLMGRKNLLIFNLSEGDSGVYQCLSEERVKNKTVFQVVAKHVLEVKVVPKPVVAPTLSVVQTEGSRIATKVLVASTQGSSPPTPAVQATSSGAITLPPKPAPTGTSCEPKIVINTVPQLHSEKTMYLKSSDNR

Human CD100 [2] = target: T1, Human CD100; test: affinity testing, reference value of MAb 1808 on the same day; unit not printed (nM as in Table 3); MAb 1808 reference on the day MAb 2117 was measured
Human CD100 [3] = target: T1, Human CD100; test: affinity testing, reference value of MAb 1808 on the same day; unit not printed (nM as in Table 3); MAb 1808 reference on the day MAb 2220 was measured
Human CD100 [4] = target: T1, Human CD100; test: affinity testing, reference value of MAb 1808 on the same day; unit not printed (nM as in Table 3); MAb 1808 reference on the day MAb 2144 was measured
Human CD100 [5] = target: T1, Human CD100; test: affinity testing, reference value of MAb 1808 on the same day; unit not printed (nM as in Table 3); MAb 1808 reference on the day MAb 2163 was measured
Human CD100 [6] = target: T1, Human CD100; test: ELISA method of Friguet et al.; column head 'Affinity (nM) IC50 ELISA'; antigen not named
Experimental: Antibody affinity was measured according to the ELISA method described in Friguet et al. (1985) J Immunol Methods 77(2):305-19.

Human CD100 [7] = target: T1, Human CD100; test: affinity testing, reference value of MAb 1808 on the same day; unit not printed (nM as in Table 3); MAb 1808 reference on the day MAb 2202 was measured
Human CD100 [8] = target: T1, Human CD100; test: affinity testing, reference value of MAb 1808 on the same day; unit not printed (nM as in Table 3); MAb 1808 reference on the day MAb 2191 was measured
Human CD100 [9] = target: T1, Human CD100; test: affinity testing, reference value of MAb 1808 on the same day; unit not printed (nM as in Table 3); MAb 1808 reference on the day MAb 2208 was measured
streptavidin = target: T2, streptavidin (UniProt P22629 37-163, limits assumed); test: ELISA
T2 construct: Negative control antigen
T2 sequence (P22629 37-163 limits assumed): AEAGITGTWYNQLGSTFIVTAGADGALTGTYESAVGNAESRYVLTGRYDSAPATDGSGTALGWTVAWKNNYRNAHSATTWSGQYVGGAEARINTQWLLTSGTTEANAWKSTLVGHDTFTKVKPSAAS

huErb2-Fc = target: T3, huErb2-Fc (human, UniProt P04626 23-652); test: ELISA
T3 construct: Negative control antigen; also called huErb2-Fc antigen

BSA = target: T4, BSA (UniProt P02769 25-607); test: ELISA
T4 construct: Negative control antigen
T4 sequence (P02769 25-607 limits assumed): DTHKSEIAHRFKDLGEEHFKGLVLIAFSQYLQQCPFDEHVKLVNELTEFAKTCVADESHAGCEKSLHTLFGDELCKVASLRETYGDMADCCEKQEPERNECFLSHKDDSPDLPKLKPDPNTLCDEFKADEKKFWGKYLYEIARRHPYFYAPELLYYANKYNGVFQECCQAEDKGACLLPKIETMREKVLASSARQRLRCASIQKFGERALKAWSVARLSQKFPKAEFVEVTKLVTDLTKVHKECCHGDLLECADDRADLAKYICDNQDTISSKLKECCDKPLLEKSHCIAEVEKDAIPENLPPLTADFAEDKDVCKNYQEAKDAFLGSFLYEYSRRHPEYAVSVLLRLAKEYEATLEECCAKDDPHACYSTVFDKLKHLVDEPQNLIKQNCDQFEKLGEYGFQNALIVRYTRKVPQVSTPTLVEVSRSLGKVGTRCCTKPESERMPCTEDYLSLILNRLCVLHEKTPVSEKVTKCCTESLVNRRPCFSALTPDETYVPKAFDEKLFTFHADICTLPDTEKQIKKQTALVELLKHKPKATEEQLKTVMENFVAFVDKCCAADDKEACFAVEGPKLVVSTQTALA

human serum albumin = target: T5, human serum albumin (human, UniProt P02768 25-609); test: ELISA
T5 construct: Negative control antigen
T5 sequence (P02768 25-609 limits assumed): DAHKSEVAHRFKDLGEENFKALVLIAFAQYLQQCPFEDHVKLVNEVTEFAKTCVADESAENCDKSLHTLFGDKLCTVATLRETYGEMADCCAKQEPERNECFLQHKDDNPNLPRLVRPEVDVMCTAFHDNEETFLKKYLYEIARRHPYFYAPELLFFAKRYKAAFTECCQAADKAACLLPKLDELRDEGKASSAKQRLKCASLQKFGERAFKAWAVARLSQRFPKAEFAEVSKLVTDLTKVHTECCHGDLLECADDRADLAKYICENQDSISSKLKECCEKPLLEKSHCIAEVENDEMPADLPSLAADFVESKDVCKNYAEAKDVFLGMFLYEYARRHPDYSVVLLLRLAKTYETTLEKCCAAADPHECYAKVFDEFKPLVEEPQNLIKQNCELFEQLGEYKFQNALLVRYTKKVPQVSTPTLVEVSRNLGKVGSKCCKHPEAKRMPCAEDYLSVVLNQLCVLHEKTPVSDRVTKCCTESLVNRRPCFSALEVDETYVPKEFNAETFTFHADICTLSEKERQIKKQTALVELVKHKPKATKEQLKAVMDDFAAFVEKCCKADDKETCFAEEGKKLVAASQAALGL

Human CD100 [10] = target: T1, Human CD100; test: affinity testing, reference value of MAb 1808 on the same day; unit not printed (nM as in Table 3); MAb 1808 reference on the day MAb 2216 was measured
Human CD100 [11] = target: T1, Human CD100; test: affinity testing, reference value of MAb 1808 on the same day; unit not printed (nM as in Table 3); MAb 1808 reference on the day MAb 2139 was measured

B1: MAb 1808 (antibody, human IgG4, V domains shown)
VH: QVQLVQSGAEVKKPGSSVKVSCKASGYTFTDYYMDWVRQAPGQGLEWMGRVNPYHGGATYNQKFKGRVTITADKSTSTAYMELSSLRSEDTAVYYCAREENSYDGYYGMDYWGQGTLVTVSS
VL: DIVMTQSPLSLPVSPGEPATINCKSSQSLFNSGNQKNYLAWYLQKPGQPPKLLIYGASTRESGVPDRFSGSGSGTDFTLTISSLQAEDVAVYYCQNDHTYPYTFGQGTKLEIK
notes: Humanized BD16, fully human frameworks, human IgG4; also called H1651/L284
Kd (Human CD100 [1]): 0.57 nM
Kd (Human CD100 [2]): 0.57 nM
Kd (Human CD100 [3]): 0.12 nM
Kd (Human CD100 [4]): 0.5 nM
Kd (Human CD100 [5]): 0.12 nM
Kd (Human CD100 [6]): 0.13 nM
Kd (Human CD100 [7]): 0.12 nM
Kd (Human CD100 [8]): 0.13 nM
Kd (Human CD100 [9]): 0.12 nM
binding result (streptavidin): no binding
binding result (huErb2-Fc): no binding
binding result (BSA): no binding
binding result (human serum albumin): no binding
Kd (Human CD100 [10]): 0.12 nM
Kd (Human CD100 [11]): 0.71 nM
